Results from the supplement of paper PMC10065799, “High-throughput profiling of sequence recognition by tyrosine kinases and SH2 domains using bacterial peptide display” (eLife, 2023).

Experiments:
AncSZ = experiment: phosphorylation enrichment, bacterial display (enrichment ratio); higher = better substrate or ligand; peptides without Tyr show the background
EPHB1 = EPHB1 (UniProt P54762); experiment: as above
EPHB2 = EPHB2 (UniProt P29323); experiment: as above
FGFR1 = FGFR1 (UniProt P11362); experiment: as above
FGFR3 = FGFR3 (UniProt P22607); experiment: as above
Fer (mouse) = experiment: as above
Fes = Fes (UniProt P07332); experiment: as above
Fyn = Fyn (UniProt P06241); experiment: as above
Hck = Hck (UniProt P08631); experiment: as above
Jak2 = Jak2 (UniProt O60674); experiment: as above
MERTK = MERTK (UniProt Q12866); experiment: as above
c-Abl (mouse) = experiment: as above
c-Src = experiment: as above
Grb2 SH2 = Grb2 SH2 (UniProt P62993); experiment: SH2 binding enrichment of the phosphorylated peptide, bacterial display (enrichment ratio); higher = better substrate or ligand; peptides without Tyr show the background
SHP2-C SH2 = experiment: as above
c-Src SH2 = experiment: as above
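Throughout, for SH2 binding enrichment of the phosphorylated peptide, bacterial display: peptide library displayed on the E. coli surface as eCPX fusions, selected cells deep-sequenced, score is each peptide's frequency after selection divided by its frequency in the input.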
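Throughout, for phosphorylation enrichment, bacterial display: 11-residue human phosphosite peptides and single-mutation variants displayed on the E. coli surface, counted by deep sequencing, each peptide's frequency after selection divided by its frequency in the unselected input library; frequency after pTyr selection over input frequency; kinase dosed for 20-30% of maximal phosphorylation in three min.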

Jak2, sequence (O60674 whole entry, looked up): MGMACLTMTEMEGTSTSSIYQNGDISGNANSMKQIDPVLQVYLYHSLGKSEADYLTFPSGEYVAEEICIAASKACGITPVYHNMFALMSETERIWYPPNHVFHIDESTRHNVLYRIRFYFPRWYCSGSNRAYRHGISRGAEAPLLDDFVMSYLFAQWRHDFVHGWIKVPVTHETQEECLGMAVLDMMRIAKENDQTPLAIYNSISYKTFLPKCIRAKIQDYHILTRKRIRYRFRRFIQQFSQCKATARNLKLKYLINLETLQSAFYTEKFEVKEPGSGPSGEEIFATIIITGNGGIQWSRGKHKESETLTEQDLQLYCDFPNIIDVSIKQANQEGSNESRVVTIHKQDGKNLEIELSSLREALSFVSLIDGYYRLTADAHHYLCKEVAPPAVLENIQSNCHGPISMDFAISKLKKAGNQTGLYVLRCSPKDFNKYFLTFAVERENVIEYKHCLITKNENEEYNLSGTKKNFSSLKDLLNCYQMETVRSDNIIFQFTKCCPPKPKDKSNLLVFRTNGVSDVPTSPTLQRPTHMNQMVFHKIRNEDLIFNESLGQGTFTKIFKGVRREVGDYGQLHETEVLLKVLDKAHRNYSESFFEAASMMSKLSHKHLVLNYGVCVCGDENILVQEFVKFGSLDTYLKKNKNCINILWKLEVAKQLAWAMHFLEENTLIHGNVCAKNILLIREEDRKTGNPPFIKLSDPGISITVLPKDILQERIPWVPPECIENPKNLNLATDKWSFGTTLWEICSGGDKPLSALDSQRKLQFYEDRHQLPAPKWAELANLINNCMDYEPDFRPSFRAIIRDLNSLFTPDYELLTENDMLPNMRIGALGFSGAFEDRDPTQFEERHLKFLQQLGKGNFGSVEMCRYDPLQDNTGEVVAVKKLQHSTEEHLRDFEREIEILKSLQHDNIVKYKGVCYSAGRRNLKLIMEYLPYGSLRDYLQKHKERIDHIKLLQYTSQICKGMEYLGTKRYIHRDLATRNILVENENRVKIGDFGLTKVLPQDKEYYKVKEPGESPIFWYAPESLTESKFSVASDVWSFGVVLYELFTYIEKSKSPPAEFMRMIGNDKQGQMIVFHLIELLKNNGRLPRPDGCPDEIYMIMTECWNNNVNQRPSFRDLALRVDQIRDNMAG
EPHB1, sequence (P54762 whole entry, looked up): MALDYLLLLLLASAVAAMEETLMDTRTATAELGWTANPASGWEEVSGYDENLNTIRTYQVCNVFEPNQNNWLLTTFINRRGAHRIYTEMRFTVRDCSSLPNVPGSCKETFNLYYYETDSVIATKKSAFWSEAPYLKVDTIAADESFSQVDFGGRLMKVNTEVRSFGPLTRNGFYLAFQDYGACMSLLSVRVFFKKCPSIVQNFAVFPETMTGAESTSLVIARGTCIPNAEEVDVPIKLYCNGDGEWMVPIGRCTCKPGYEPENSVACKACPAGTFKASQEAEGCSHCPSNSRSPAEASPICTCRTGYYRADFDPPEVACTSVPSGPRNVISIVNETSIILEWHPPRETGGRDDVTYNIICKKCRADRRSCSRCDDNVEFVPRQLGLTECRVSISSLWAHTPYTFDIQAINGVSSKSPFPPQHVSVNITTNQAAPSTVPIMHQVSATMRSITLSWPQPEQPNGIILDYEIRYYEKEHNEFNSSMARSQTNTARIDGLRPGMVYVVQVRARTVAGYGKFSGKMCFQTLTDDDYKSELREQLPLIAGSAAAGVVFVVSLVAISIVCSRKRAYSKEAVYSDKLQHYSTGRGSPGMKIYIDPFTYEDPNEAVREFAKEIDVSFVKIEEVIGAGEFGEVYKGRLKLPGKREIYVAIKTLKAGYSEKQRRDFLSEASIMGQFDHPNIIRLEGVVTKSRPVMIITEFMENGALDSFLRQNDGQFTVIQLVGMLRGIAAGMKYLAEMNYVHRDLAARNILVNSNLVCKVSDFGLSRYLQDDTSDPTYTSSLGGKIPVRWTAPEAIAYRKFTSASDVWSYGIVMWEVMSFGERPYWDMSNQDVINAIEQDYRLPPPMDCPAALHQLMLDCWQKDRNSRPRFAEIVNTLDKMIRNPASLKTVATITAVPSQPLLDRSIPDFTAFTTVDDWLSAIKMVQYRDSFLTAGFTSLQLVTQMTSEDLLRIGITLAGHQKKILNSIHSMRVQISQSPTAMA
FGFR3, sequence (P22607 whole entry, looked up): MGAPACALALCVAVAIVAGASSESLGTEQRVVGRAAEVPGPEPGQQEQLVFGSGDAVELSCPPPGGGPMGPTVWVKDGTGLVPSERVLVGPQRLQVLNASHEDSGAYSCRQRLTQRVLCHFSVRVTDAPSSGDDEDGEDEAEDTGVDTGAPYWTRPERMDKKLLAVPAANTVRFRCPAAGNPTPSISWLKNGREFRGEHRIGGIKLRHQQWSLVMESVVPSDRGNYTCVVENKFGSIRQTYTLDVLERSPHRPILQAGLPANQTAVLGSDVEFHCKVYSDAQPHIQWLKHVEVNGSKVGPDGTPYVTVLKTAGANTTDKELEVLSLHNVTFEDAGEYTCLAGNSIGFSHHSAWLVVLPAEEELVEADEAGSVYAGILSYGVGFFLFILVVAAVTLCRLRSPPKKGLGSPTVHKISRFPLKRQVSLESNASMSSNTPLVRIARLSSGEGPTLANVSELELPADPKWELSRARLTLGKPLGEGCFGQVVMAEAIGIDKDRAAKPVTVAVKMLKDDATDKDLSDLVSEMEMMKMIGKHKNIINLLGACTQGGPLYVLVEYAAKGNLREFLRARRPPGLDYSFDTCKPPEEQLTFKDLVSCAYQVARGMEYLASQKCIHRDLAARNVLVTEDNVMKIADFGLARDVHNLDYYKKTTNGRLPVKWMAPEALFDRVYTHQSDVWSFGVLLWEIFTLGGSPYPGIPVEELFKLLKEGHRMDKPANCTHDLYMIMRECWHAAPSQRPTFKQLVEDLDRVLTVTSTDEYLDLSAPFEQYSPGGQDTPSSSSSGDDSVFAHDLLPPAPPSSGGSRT
Fes, sequence (P07332 whole entry, looked up): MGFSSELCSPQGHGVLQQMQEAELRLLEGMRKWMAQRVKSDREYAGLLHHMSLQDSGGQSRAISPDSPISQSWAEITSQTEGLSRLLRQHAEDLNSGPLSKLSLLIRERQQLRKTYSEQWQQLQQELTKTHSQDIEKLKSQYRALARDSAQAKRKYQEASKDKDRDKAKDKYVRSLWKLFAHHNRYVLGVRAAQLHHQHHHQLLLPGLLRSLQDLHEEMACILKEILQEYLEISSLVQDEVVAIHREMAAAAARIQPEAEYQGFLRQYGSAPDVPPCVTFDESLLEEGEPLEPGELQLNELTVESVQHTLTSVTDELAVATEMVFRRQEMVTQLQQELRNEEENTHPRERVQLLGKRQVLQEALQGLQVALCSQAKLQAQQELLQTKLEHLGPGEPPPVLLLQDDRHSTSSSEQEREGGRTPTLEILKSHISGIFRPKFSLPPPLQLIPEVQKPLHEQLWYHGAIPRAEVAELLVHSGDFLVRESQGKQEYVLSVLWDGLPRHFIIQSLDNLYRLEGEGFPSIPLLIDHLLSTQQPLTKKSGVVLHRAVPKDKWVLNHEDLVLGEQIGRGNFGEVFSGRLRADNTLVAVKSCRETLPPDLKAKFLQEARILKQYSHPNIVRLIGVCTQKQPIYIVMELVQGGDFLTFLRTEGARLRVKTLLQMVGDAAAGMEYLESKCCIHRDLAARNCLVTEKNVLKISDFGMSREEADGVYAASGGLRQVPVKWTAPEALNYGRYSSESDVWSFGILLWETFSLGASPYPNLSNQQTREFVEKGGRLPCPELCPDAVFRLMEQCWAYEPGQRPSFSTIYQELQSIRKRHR
MERTK, sequence (Q12866 whole entry, looked up): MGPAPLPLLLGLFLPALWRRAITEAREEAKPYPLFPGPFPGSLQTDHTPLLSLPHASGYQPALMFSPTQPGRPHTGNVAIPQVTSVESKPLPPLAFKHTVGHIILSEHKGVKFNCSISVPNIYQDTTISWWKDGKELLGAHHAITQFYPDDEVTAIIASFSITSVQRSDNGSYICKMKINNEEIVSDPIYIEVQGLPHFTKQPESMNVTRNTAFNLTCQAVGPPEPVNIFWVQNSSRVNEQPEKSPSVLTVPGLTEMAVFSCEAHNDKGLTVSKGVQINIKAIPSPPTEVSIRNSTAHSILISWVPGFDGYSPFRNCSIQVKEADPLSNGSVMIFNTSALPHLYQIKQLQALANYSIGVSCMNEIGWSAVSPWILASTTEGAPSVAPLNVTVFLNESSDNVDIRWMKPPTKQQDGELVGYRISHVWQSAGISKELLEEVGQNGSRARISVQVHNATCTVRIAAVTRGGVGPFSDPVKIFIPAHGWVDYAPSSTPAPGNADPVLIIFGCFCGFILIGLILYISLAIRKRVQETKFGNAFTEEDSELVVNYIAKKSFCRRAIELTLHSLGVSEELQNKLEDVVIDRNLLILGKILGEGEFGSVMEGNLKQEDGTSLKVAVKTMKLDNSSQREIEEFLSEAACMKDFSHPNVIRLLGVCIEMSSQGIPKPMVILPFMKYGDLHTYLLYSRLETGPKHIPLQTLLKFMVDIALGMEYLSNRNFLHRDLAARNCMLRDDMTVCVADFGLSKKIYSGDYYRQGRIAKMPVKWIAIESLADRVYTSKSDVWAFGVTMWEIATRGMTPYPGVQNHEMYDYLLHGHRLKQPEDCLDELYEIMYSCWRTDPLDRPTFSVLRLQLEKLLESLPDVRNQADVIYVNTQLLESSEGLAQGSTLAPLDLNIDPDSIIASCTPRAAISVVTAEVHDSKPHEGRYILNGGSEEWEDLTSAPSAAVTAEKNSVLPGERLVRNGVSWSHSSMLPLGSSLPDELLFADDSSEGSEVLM

SH2 binding enrichment (Grb2 SH2)	SH2 binding enrichment (SHP2-C SH2)	SH2 binding enrichment (c-Src SH2)	Sequence	phosphorylation enrichment (AncSZ)	phosphorylation enrichment (EPHB1)	phosphorylation enrichment (EPHB2)	phosphorylation enrichment (FGFR1)	phosphorylation enrichment (FGFR3)	phosphorylation enrichment (Fer (mouse))	phosphorylation enrichment (Fes)	phosphorylation enrichment (Fyn)	phosphorylation enrichment (Hck)	phosphorylation enrichment (Jak2)	phosphorylation enrichment (MERTK)	phosphorylation enrichment (c-Abl (mouse))	phosphorylation enrichment (c-Src)
0.818	0.566	0.402	ILQSMYGCDVG [HLA-B_Y123_T118I]	0.816	0.659	0.51	0.403	0.624	0.48	0.935	0.489	0.517	0.893	0.438	0.546	0.569
0.819	0.825	0.641	IMAFFYMCDRA [CASD1_Y382_YF]	1.48	0.938	0.648	0.652	1.12	0.677	1.63	0.57	0.545	1.64	0.544	1.09	0.57
1.1	0.725	0.551	IMAFFYMCDSA [CASD1_Y382_R386S_YF]	1.44	0.896	0.782	0.791	1.12	0.805	1.78	0.548	0.658	1.41	0.401	1.11	0.596
1.2	0.643	0.532	INQGPYENRSV [ATP6V1B1_Y462]	0.558	0.381	0.568	0.421	0.441	0.4	0.622	0.38	0.423	0.47	0.38	0.475	0.435
0.991	0.876	0.823	IPGGIYDADLN [CST4_Y35]	1.24	0.582	0.649	0.746	0.836	0.611	1.32	1.76	1.65	1.4	0.787	1.14	1.62
0.707	0.876	1.18	IPTPAYQSLPA [PDCD6IP_Y727_S730L]	0.652	0.506	0.501	0.497	0.711	0.341	0.624	0.467	0.941	0.616	0.898	0.546	0.416
0.767	0.566	0.567	IPTPAYQSSPA [PDCD6IP_Y727]	0.489	0.452	0.364	0.377	0.422	0.373	0.674	0.406	0.38	0.541	0.356	0.504	0.369
0.823	0.679	1.3	IQSAKYDMAED [TTC21B_Y1213]	1.21	0.572	0.724	0.611	0.793	0.503	1.21	0.59	0.687	1.2	0.484	0.825	0.513
0.762	0.526	0.542	IRRQGYSHRIL [MYO3B_Y993]	0.733	0.4	0.568	0.374	0.469	0.43	0.656	0.465	0.419	0.475	0.464	0.469	0.42
1.18	1.18	0.813	IRTIDYRFTVS [IDS_Y497_W502S_YF]	0.907	0.496	0.547	0.483	0.683	0.596	1.05	0.424	0.444	0.989	0.441	0.989	0.458
0.823	0.587	1.04	ISNATYKEIGL [FLT1_Y199]	0.462	0.352	0.498	0.446	0.438	0.471	0.605	0.447	0.485	0.442	0.304	0.467	0.366
0.863	0.78	0.481	ISNATYKQIGL [FLT1_Y199_E201Q]	0.667	0.421	0.342	0.378	0.399	0.362	0.582	0.434	0.349	0.513	0.419	0.566	0.399
0.743	0.626	0.446	ISRVLYPNDNF [PYGM_Y281]	0.649	0.438	0.524	0.448	0.472	0.422	0.748	0.759	0.395	0.675	0.37	0.602	0.477
0.69	0.585	0.404	ITQRAYRRHLL [SCN1A_Y1926_I1922T]	0.63	0.427	0.417	0.442	0.48	0.403	0.557	0.444	0.457	0.573	0.585	0.547	0.622
1.36	1.53	0.781	IVKAFYVHARA [AIPL1_Y268_R270H_YF]	1.04	0.492	0.621	0.479	0.825	0.559	1.18	0.585	0.488	0.955	0.601	0.718	0.41
1.06	0.755	0.467	IWDLKYTIENP [SND1_Y178_R174W]	1.01	0.593	0.498	0.497	0.82	0.496	1.16	0.353	0.433	1.02	0.426	1.07	0.688

Sequence	SH2 binding enrichment (Grb2 SH2)	SH2 binding enrichment (SHP2-C SH2)	SH2 binding enrichment (c-Src SH2)	phosphorylation enrichment (AncSZ)	phosphorylation enrichment (EPHB1)	phosphorylation enrichment (EPHB2)	phosphorylation enrichment (FGFR1)	phosphorylation enrichment (FGFR3)	phosphorylation enrichment (Fer (mouse))	phosphorylation enrichment (Fes)	phosphorylation enrichment (Fyn)	phosphorylation enrichment (Hck)	phosphorylation enrichment (Jak2)	phosphorylation enrichment (MERTK)	phosphorylation enrichment (c-Abl (mouse))	phosphorylation enrichment (c-Src)
IYETDYYRKGG [INSR_Y1189]	0.863	0.621	0.59	1.05	0.645	0.673	0.479	0.771	1.54	0.885	1.14	1.28	0.942	3.92	0.626	1.16
